B1: HDV Ribozyme (parent)
chain: GGCCGGCAUGGUCCCAGCCUCCUCGCUGGCGCCGGCUGGGCAACAUUCCGAGGGGACCGUCCCCUCGGUAAUGGCGAAUGGGACCCA

Variants of: B1
Experiment: self-cleavage, relative activity (ratio to wild type); higher = more cleavage; co-transcriptional

Point of comparison: G10A G38U, self-cleavage 0.0923. Against it:
- U9G G25A — lower, 0.0755
- U9G G25U — higher, 0.383
- U9A C66G — higher, 1.1
- A8U G31A — higher, 0.405
- U9A C85A — higher, 0.902
- U9A C85G — higher, 1.13
- U9A U12C — higher, 0.289
- U9C C36A — higher, 0.178
- U9C C36U — higher, 0.682
- U9A C84U — higher, 0.749
- U9C A71G — higher, 0.997
- U9A A16U — higher, 1.19
- G10A U79G — higher, 0.232
- U9G C21U — higher, 0.332
- U9G C21A — higher, 0.123
- U9C C14G — higher, 0.208
- U9C C58G — higher, 1.14
- U9A A56G — higher, 0.95
- U9A A56C — higher, 1.16
- U9G A71U — higher, 1.13
- U9G A71C — higher, 0.787
- U9G A71G — higher, 0.831
- U9A C18U — higher, 0.991
- U9A C18A — higher, 0.107
- U9A C18G — higher, 0.369
- U9A G34C — higher, 0.375
- U9C C75G — lower, 0
- U9C C24U — higher, 1.05
- U9C C24A — higher, 0.864
- U9C C24G — lower, 0.0536
- U9C C57G — higher, 1.17
- U9C U12C — higher, 0.119
- U9C U12A — higher, 0.511
- U9C U12G — higher, 1.07
- U9C G39U — higher, 0.665
- U9C C33A — higher, 0.489
- U9C G68C — higher, 0.89
- U9C G10C — higher, 0.767
- U9A C36A — higher, 0.122
- U9A C36U — higher, 1.02
- U9A C36G — higher, 0.369
- G10A G29C — lower, 0.0767
- G10A G29U — lower, 0.0275
- G10A G29A — lower, 0.0798
- A8U G68A — higher, 0.511
- U9A U46G — higher, 1.08
- U9A U46C — higher, 0.831
- G10A G52A — higher, 0.749
- G10C C49U — higher, 0.89
- G10C C49A — higher, 0.443
- U9C U23C — higher, 1.06
- U9G G82A — higher, 0.739
- U9A U72A — higher, 0.712
- U9A C75A — lower, 0.0573
- U9A C75U — higher, 0.145
- U9A A43C — higher, 0.447
- U9C C32G — lower, 0
- G10C C15U — higher, 0.582
- G10C C15A — higher, 0.237
- U9C G40U — higher, 0.449
- U9C U72C — higher, 0.485
- U9G C58A — higher, 1.42
- U9G C61A — higher, 1.33
- G10A G73U — higher, 0.159
- U9A G17A — higher, 0.906
- U9G C85A — higher, 1.02
- G10C G29C — higher, 0.155
- G10C G29U — lower, 0.0707
- A8U G76U — higher, 0.707
- A8U G76A — higher, 0.95
- U9G G29U — lower, 0
- G10C G52A — higher, 0.746
- G10C G52U — higher, 1.03
- G10A C13U — higher, 0.179
- A8U U65C — higher, 0.895
- G10C C13U — higher, 0.119
- G10C C84A — higher, 0.705
- G10C C84G — higher, 0.578
- A8U A87C — higher, 0.845
- A8U A87G — higher, 0.754
- G10C G25A — higher, 0.308
- A8U C41G — higher, 0.506
- U9A C86U — higher, 1.09
- G10A C58U — higher, 0.972
- G10A C58A — higher, 0.816
- G10C C58U — higher, 1.23
- U9G A87C — higher, 0.969
- A8U A51C — higher, 0.633
- U9G C75G — lower, 0.0791
- U9G C75A — higher, 0.201
- G10C G17U — higher, 0.494
- U9G C41G — higher, 0.831
- G10C G31C — higher, 0.237
- G10C G31A — higher, 0.393
- U9C G74U — higher, 0.467
- U9G A42G — higher, 0.727
- G10C G40U — higher, 0.776
- G10C A51C — higher, 0.665
- U9A U60G — higher, 0.9
- U9A U60C — higher, 1.02
- G10A U60C — higher, 0.787
- G10A U72C — higher, 0.175
- G10A U72G — higher, 0.378
- U9C G35C — higher, 0.519
- U9G G80C — higher, 0.246
- A8U C75G — higher, 0.142
- U9C C61G — higher, 0.755
- U9A A42U — higher, 0.688
- G10C G54A — higher, 0.831
- U9C C41A — higher, 1.19
- G10A C75G — lower, 0.086
- A8U U79G — higher, 0.289
- A8U U79A — higher, 0.525
- A8U C48U — higher, 1.13
- A8U C19G — higher, 0.106
- U9G U12C — higher, 0.923
- U9G C22U — higher, 0.44
- U9G C22A — higher, 0.314
- U9C A45C — higher, 0.957
- U9G G68A — higher, 0.831
- U9G G68C — higher, 1.02
- G10C C57G — higher, 0.81
- U9A G53C — higher, 0.974
- U9C G31A — higher, 0.269
- U9C G31U — higher, 0.399
- U9G C30A — higher, 0.653
- U9A C64A — higher, 1.04
- G10C C75A — higher, 0.415
- U9G A16U — higher, 1.14
- U9A C57G — higher, 1.18
- U9C G38U — higher, 0.486
- U9C G38A — higher, 0.123
- A8U C84U — higher, 0.506
- A8U C84A — higher, 0.95
- A8U A83U — higher, 0.26
- U9A C13G — higher, 0.111
- U9C C63A — higher, 1.14
- G10A G67A — higher, 0.66
- U9A G25C — lower, 0.0615
- A8U A70G — higher, 0.969
- U9G U20G — lower, 0
- G10A C18U — higher, 0.138
- G10A C18G — lower, 0.0817
- G10A C18A — lower, 0.0567
- U9C G28A — higher, 0.101
- G10C C64G — higher, 0.997
- G10C C64A — higher, 0.504
- G10C C64U — higher, 0.892
- A8U G82A — lower, 0
- A8U A43U — higher, 0.125
- A8U A43C — higher, 0.453
- G10A G50A — higher, 0.657
- U9A G52U — higher, 0.858
- U9A G52C — higher, 1.16
- U9C A87U — higher, 1.06
- U9A C61A — higher, 1.16
- U9A C14A — higher, 0.65
- A8U C58G — higher, 0.582
- G10A A56G — higher, 0.695
- G10A A56C — higher, 0.78
- G10C G53C — higher, 1.02
- U9G C62A — higher, 1.14
- G10C C33A — higher, 0.213
- A8U G34A — higher, 0.242
- A8U G34U — higher, 0.142
- U9G U72C — higher, 0.415
